Experimental data from publication PMC13245265.

Biological target: Tectus dentatus superoxide dismutase 1 (Tectus dentatus)
Test: SEC

stoichiometry N: 2
Substance: Tectus dentatus superoxide dismutase 1 (enzyme)
